Drawing on US20090318342A1, “Compounds” (IMPERIAL INNOVATIONS LIMITED, priority 2005, published 2009), this text covers Ki for two substances.

Experiment [1] deals with soluble form of TACE in which the transmembrane and C-terminal cytoplasmic domains are deleted (TACE R651) (human) (UniProt P78536). As to the kind of experiment: TACE inhibition kinetics at pH 7.5.
The target in experiment [2] is catalytic domain of stromelysin 1 (MMP-3(ΔC)) (Homo sapiens (Human)) (UniProt P08254). Nature of the experiment: enzyme inhibition kinetics, Ki(app), as in Example 1.
The target of experiment [3] is full-length collagenase 1 (MMP-1) (Homo sapiens (Human)) (UniProt P03956). The description is as above.
Experiment [4] has as its target gelatinase A (MMP-2) (Homo sapiens (Human)) (UniProt P08253). The description is as above.
The target of experiment [5] is T1, recombinant human ADAMTS-4 lacking the C-terminal spacer domain (human) (UniProt O75173).
T1 sequence: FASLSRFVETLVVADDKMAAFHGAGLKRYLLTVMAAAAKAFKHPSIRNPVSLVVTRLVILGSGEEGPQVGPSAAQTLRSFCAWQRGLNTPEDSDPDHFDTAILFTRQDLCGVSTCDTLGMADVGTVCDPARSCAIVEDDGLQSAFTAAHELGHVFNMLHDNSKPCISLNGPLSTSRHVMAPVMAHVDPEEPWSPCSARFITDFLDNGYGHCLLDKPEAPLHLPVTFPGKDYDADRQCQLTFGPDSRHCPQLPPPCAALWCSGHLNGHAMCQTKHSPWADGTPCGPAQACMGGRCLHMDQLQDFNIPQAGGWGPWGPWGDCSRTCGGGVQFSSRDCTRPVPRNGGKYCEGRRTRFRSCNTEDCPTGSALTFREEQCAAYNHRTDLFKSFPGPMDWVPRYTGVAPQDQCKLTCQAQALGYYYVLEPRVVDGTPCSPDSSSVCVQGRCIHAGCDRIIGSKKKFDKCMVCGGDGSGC
Nature of the experiment: inhibition of aggrecan cleavage by 0.5 nM ADAMTS-4, anti-GELE Western blot, densitometry. A general note: In western blotting, separated proteins are transferred to a membrane and probed.

Experiment [6] has as its target full-length collagenase 1 (MMP-1) (Homo sapiens (Human)) (UniProt P03956). As to the kind of experiment: enzyme inhibition kinetics, Ki(app), 5 nM MMP-1.
For experiment [7], the target named is catalytic domain of membrane-type 1 MMP (MMP-14(CD)) (Homo sapiens (Human)) (UniProt P50281). Nature of the experiment: enzyme inhibition kinetics, Ki(app), 5 nM MMP-14(CD).
In experiment [8] the target is catalytic domain of stromelysin 1 (MMP-3(ΔC)) (Homo sapiens (Human)) (UniProt P08254). Nature of the experiment: enzyme inhibition kinetics, Ki(app), 1 nM MMP-3(ΔC).
Experiment [9] concerns the target T2, ADAMTS-4 (as used in Example 4; form not stated) (Homo sapiens (Human)) (UniProt O75173).
T2 sequence: T1 sequence
As to the kind of experiment: GST-IGD-FLAG substrate assay, Ki(app).

Experiment [10] deals with ADAMTS-5 (Homo sapiens (Human)) (UniProt Q9UNA0). As to the kind of experiment: GST-IGD-FLAG substrate assay, Ki(app).
The target in experiment [11] is gelatinase A (MMP-2) (Homo sapiens (Human)) (UniProt P08253). Nature of the experiment: enzyme inhibition kinetics, Ki(app), 1 nM MMP-2.
Experiment [12] has as its target soluble form of TACE in which the transmembrane and C-terminal cytoplasmic domains are deleted (TACE R651) (human) (UniProt P78536). Nature of the experiment: TACE inhibition kinetics, Ki(app), pH 9.0, fit with equation 3 (cooperative).
Experiment [13] addresses full-length collagenase 1 (MMP-1) (Homo sapiens (Human)) (UniProt P03956). As to the kind of experiment: MMP-1 inhibition under the conditions used for TACE activity measurements.
Target sequence in this assay (P03956 100-469 limits assumed): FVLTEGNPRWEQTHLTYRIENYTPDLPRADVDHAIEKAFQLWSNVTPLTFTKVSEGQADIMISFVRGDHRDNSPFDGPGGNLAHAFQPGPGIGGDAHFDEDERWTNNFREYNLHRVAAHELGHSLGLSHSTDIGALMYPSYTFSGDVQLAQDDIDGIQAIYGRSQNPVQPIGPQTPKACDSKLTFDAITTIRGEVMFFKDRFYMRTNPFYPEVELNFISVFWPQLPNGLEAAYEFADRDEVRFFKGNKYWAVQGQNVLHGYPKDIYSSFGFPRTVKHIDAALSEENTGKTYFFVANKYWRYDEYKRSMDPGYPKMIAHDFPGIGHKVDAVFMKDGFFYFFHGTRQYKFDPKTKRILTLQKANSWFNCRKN

(-1A)N-TIMP-3, sequence (chain): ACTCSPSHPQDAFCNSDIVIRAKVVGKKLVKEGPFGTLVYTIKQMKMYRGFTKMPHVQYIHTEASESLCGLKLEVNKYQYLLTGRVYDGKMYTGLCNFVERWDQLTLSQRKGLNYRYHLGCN

Regarding N-TIMP-3(T2G), the Ki in experiment [1] was 46 nM; in experiment [2] it was > 1000 nM; in experiment [3] it was > 500 nM; in experiment [4], > 1000 nM; in experiment [5], 15 nM; in experiment [6] it was 547 nM. In addition, the Ki in [7] was 2300 nM; in experiment [8], > 10000 nM; in experiment [9], 20 nM; in experiment [10], 1.5 nM; in experiment [11] it was 4200 nM; in experiment [12] it was 35.6 nM.

As to (-1A)N-TIMP-3, the Ki is > 1000 nM in experiment [2]; > 500 nM in experiment [3]; > 1000 nM in [4]; 412 nM in experiment [13]; 18 nM in [5]; 1300 nM in experiment [6]. For the same substance, the Ki in [7] came out at 941 nM; in experiment [8] it was 3300 nM; in experiment [9] it was 25 nM; in experiment [10], 1.9 nM; in experiment [11], 614 nM; in experiment [12], 33.9 nM.
